Measured values from US20160272683A1 (Novo Nordisk, published 2016).
Numbered stars: 1 amine (or outer) side, 2 acyl side, 3 side chain; on linkers, the order of the positions; unused ones are H or OH. * marks the point of attachment. C20 diacid = O=C(O)CCCCCCCCCCCCCCCCCCC(=O)*; C18 diacid = O=C(O)CCCCCCCCCCCCCCCCC(=O)*; C16 diacid = O=C(O)CCCCCCCCCCCCCCC(=O)*; γGlu = O=C(O)[C@H](CCC(=O)[*:2])N[*:1]

T1: human amylin 3(a) receptor (human calcitonin receptor co-expressed with RAMP-3) (human, UniProt P30988 25-474; O60896 24-148, limits assumed)
T1 sequence (looked up) 1: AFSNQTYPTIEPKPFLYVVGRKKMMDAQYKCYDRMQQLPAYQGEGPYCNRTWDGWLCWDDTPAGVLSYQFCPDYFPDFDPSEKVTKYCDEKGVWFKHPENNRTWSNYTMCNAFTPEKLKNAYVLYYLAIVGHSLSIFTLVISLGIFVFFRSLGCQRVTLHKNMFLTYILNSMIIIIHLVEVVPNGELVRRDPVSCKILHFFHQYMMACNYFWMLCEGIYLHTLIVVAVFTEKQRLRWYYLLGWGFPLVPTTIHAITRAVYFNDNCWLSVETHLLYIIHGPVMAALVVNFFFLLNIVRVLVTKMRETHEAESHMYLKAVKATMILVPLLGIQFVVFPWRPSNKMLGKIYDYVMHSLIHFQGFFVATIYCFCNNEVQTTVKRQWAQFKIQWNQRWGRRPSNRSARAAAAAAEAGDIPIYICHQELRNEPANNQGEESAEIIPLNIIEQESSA
T1 sequence (looked up) 2: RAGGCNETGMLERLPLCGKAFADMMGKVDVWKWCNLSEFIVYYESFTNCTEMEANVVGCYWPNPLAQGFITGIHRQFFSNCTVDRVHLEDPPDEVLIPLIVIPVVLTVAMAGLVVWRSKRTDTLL

T2: human calcitonin receptor (human, UniProt P30988 25-474)
T2 sequence (looked up): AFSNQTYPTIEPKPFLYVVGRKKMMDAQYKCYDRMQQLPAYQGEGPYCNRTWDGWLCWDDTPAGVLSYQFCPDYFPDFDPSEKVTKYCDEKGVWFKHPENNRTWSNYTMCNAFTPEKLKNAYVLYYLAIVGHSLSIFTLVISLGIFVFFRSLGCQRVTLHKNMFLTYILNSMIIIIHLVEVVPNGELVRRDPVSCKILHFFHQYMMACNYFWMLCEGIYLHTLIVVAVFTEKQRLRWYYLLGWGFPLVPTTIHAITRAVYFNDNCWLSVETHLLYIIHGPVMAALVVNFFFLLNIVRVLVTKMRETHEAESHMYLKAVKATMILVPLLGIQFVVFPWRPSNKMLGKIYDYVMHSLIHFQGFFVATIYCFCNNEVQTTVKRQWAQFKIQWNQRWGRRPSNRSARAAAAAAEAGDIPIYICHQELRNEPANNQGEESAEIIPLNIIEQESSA

B1: [N-terminal(C18 diacid), 4P, 9V]mimylin (peptide)
peptide: {C18 diacid}-EASPLSTAVLGRLSAELHELATLPRTETGPESP-NH2
SMILES: CC(C)C[C@H](NC(=O)[C@H](CCC(=O)O)NC(=O)[C@H](Cc1c[nH]cn1)NC(=O)[C@H](CC(C)C)NC(=O)[C@H](CCC(=O)O)NC(=O)[C@H](C)NC(=O)[C@H](CO)NC(=O)[C@H](CC(C)C)NC(=O)[C@H](CCCNC(=N)N)NC(=O)CNC(=O)[C@H](CC(C)C)NC(=O)[C@@H](NC(=O)[C@H](C)NC(=O)[C@@H](NC(=O)[C@H](CO)NC(=O)[C@H](CC(C)C)NC(=O)[C@@H]1CCCN1C(=O)[C@H](CO)NC(=O)[C@H](C)NC(=O)[C@H](CCC(=O)O)NC(=O)CCCCCCCCCCCCCCCCC(=O)O)[C@@H](C)O)C(C)C)C(=O)N[C@@H](C)C(=O)N[C@H](C(=O)N[C@@H](CC(C)C)C(=O)N1CCC[C@H]1C(=O)N[C@@H](CCCNC(=N)N)C(=O)N[C@H](C(=O)N[C@@H](CCC(=O)O)C(=O)N[C@H](C(=O)NCC(=O)N1CCC[C@H]1C(=O)N[C@@H](CCC(=O)O)C(=O)N[C@@H](CO)C(=O)N1CCC[C@H]1C(N)=O)[C@@H](C)O)[C@@H](C)O)[C@@H](C)O
B2: [N-terminal(C20 diacid-gGlu), 23Y, 30S, 31G]mimylin (peptide)
peptide: {C20 diacid-γGlu}-EASELSTAALGRLSAELHELATYPRTETGSGSP-NH2
SMILES: CC(C)C[C@H](NC(=O)[C@H](C)NC(=O)[C@H](C)NC(=O)[C@@H](NC(=O)[C@H](CO)NC(=O)[C@H](CC(C)C)NC(=O)[C@H](CCC(=O)O)NC(=O)[C@H](CO)NC(=O)[C@H](C)NC(=O)[C@H](CCC(=O)O)NC(=O)CC[C@H](NC(=O)CCCCCCCCCCCCCCCCCCC(=O)O)C(=O)O)[C@@H](C)O)C(=O)NCC(=O)N[C@@H](CCCNC(=N)N)C(=O)N[C@@H](CC(C)C)C(=O)N[C@@H](CO)C(=O)N[C@@H](C)C(=O)N[C@@H](CCC(=O)O)C(=O)N[C@@H](CC(C)C)C(=O)N[C@@H](Cc1c[nH]cn1)C(=O)N[C@@H](CCC(=O)O)C(=O)N[C@@H](CC(C)C)C(=O)N[C@@H](C)C(=O)N[C@H](C(=O)N[C@@H](Cc1ccc(O)cc1)C(=O)N1CCC[C@H]1C(=O)N[C@@H](CCCNC(=N)N)C(=O)N[C@H](C(=O)N[C@@H](CCC(=O)O)C(=O)N[C@H](C(=O)NCC(=O)N[C@@H](CO)C(=O)NCC(=O)N[C@@H](CO)C(=O)N1CCC[C@H]1C(N)=O)[C@@H](C)O)[C@@H](C)O)[C@@H](C)O
B3: [N-terminal(C18 diacid), 5V, 9V, 20V]mimylin (peptide)
peptide: {C18 diacid}-EASEVSTAVLGRLSAELHEVATLPRTETGPESP-NH2
SMILES: CC(C)C[C@H](NC(=O)[C@H](CCCNC(=N)N)NC(=O)CNC(=O)[C@H](CC(C)C)NC(=O)[C@@H](NC(=O)[C@H](C)NC(=O)[C@@H](NC(=O)[C@H](CO)NC(=O)[C@@H](NC(=O)[C@H](CCC(=O)O)NC(=O)[C@H](CO)NC(=O)[C@H](C)NC(=O)[C@H](CCC(=O)O)NC(=O)CCCCCCCCCCCCCCCCC(=O)O)C(C)C)[C@@H](C)O)C(C)C)C(=O)N[C@@H](CO)C(=O)N[C@@H](C)C(=O)N[C@@H](CCC(=O)O)C(=O)N[C@@H](CC(C)C)C(=O)N[C@@H](Cc1c[nH]cn1)C(=O)N[C@@H](CCC(=O)O)C(=O)N[C@H](C(=O)N[C@@H](C)C(=O)N[C@H](C(=O)N[C@@H](CC(C)C)C(=O)N1CCC[C@H]1C(=O)N[C@@H](CCCNC(=N)N)C(=O)N[C@H](C(=O)N[C@@H](CCC(=O)O)C(=O)N[C@H](C(=O)NCC(=O)N1CCC[C@H]1C(=O)N[C@@H](CCC(=O)O)C(=O)N[C@@H](CO)C(=O)N1CCC[C@H]1C(N)=O)[C@@H](C)O)[C@@H](C)O)[C@@H](C)O)C(C)C
B4: [N-terminal(C18 diacid-gGlu), des1, 30S, 31P]mimylin (peptide)
peptide: {C18 diacid-γGlu}-ASELSTAALGRLSAELHELATLPRTETGSPSP-NH2
SMILES: CC(C)C[C@H](NC(=O)[C@H](C)NC(=O)[C@H](C)NC(=O)[C@@H](NC(=O)[C@H](CO)NC(=O)[C@H](CC(C)C)NC(=O)[C@H](CCC(=O)O)NC(=O)[C@H](CO)NC(=O)[C@H](C)NC(=O)CC[C@H](NC(=O)CCCCCCCCCCCCCCCCC(=O)O)C(=O)O)[C@@H](C)O)C(=O)NCC(=O)N[C@@H](CCCNC(=N)N)C(=O)N[C@@H](CC(C)C)C(=O)N[C@@H](CO)C(=O)N[C@@H](C)C(=O)N[C@@H](CCC(=O)O)C(=O)N[C@@H](CC(C)C)C(=O)N[C@@H](Cc1c[nH]cn1)C(=O)N[C@@H](CCC(=O)O)C(=O)N[C@@H](CC(C)C)C(=O)N[C@@H](C)C(=O)N[C@H](C(=O)N[C@@H](CC(C)C)C(=O)N1CCC[C@H]1C(=O)N[C@@H](CCCNC(=N)N)C(=O)N[C@H](C(=O)N[C@@H](CCC(=O)O)C(=O)N[C@H](C(=O)NCC(=O)N[C@@H](CO)C(=O)N1CCC[C@H]1C(=O)N[C@@H](CO)C(=O)N1CCC[C@H]1C(N)=O)[C@@H](C)O)[C@@H](C)O)[C@@H](C)O
B5: [N-terminal(C18 diacid), 9V, 25P]mimylin (peptide)
peptide: {C18 diacid}-EASELSTAVLGRLSAELHELATLPPTETGPESP-NH2
SMILES: CC(C)C[C@H](NC(=O)[C@H](CCC(=O)O)NC(=O)[C@H](Cc1c[nH]cn1)NC(=O)[C@H](CC(C)C)NC(=O)[C@H](CCC(=O)O)NC(=O)[C@H](C)NC(=O)[C@H](CO)NC(=O)[C@H](CC(C)C)NC(=O)[C@H](CCCNC(=N)N)NC(=O)CNC(=O)[C@H](CC(C)C)NC(=O)[C@@H](NC(=O)[C@H](C)NC(=O)[C@@H](NC(=O)[C@H](CO)NC(=O)[C@H](CC(C)C)NC(=O)[C@H](CCC(=O)O)NC(=O)[C@H](CO)NC(=O)[C@H](C)NC(=O)[C@H](CCC(=O)O)NC(=O)CCCCCCCCCCCCCCCCC(=O)O)[C@@H](C)O)C(C)C)C(=O)N[C@@H](C)C(=O)N[C@H](C(=O)N[C@@H](CC(C)C)C(=O)N1CCC[C@H]1C(=O)N1CCC[C@H]1C(=O)N[C@H](C(=O)N[C@@H](CCC(=O)O)C(=O)N[C@H](C(=O)NCC(=O)N1CCC[C@H]1C(=O)N[C@@H](CCC(=O)O)C(=O)N[C@@H](CO)C(=O)N1CCC[C@H]1C(N)=O)[C@@H](C)O)[C@@H](C)O)[C@@H](C)O
B6: [N-terminal(C18 diacid), 9V, 18A]mimylin (peptide)
peptide: {C18 diacid}-EASELSTAVLGRLSAELAELATLPRTETGPESP-NH2
SMILES: CC(C)C[C@H](NC(=O)[C@H](CCC(=O)O)NC(=O)[C@H](C)NC(=O)[C@H](CO)NC(=O)[C@H](CC(C)C)NC(=O)[C@H](CCCNC(=N)N)NC(=O)CNC(=O)[C@H](CC(C)C)NC(=O)[C@@H](NC(=O)[C@H](C)NC(=O)[C@@H](NC(=O)[C@H](CO)NC(=O)[C@H](CC(C)C)NC(=O)[C@H](CCC(=O)O)NC(=O)[C@H](CO)NC(=O)[C@H](C)NC(=O)[C@H](CCC(=O)O)NC(=O)CCCCCCCCCCCCCCCCC(=O)O)[C@@H](C)O)C(C)C)C(=O)N[C@@H](C)C(=O)N[C@@H](CCC(=O)O)C(=O)N[C@@H](CC(C)C)C(=O)N[C@@H](C)C(=O)N[C@H](C(=O)N[C@@H](CC(C)C)C(=O)N1CCC[C@H]1C(=O)N[C@@H](CCCNC(=N)N)C(=O)N[C@H](C(=O)N[C@@H](CCC(=O)O)C(=O)N[C@H](C(=O)NCC(=O)N1CCC[C@H]1C(=O)N[C@@H](CCC(=O)O)C(=O)N[C@@H](CO)C(=O)N1CCC[C@H]1C(N)=O)[C@@H](C)O)[C@@H](C)O)[C@@H](C)O
B7: [N-terminal(C18 diacid), 9V, 28P]mimylin (peptide)
peptide: {C18 diacid}-EASELSTAVLGRLSAELHELATLPRTEPGPESP-NH2
SMILES: CC(C)C[C@H](NC(=O)[C@H](CCC(=O)O)NC(=O)[C@H](Cc1c[nH]cn1)NC(=O)[C@H](CC(C)C)NC(=O)[C@H](CCC(=O)O)NC(=O)[C@H](C)NC(=O)[C@H](CO)NC(=O)[C@H](CC(C)C)NC(=O)[C@H](CCCNC(=N)N)NC(=O)CNC(=O)[C@H](CC(C)C)NC(=O)[C@@H](NC(=O)[C@H](C)NC(=O)[C@@H](NC(=O)[C@H](CO)NC(=O)[C@H](CC(C)C)NC(=O)[C@H](CCC(=O)O)NC(=O)[C@H](CO)NC(=O)[C@H](C)NC(=O)[C@H](CCC(=O)O)NC(=O)CCCCCCCCCCCCCCCCC(=O)O)[C@@H](C)O)C(C)C)C(=O)N[C@@H](C)C(=O)N[C@H](C(=O)N[C@@H](CC(C)C)C(=O)N1CCC[C@H]1C(=O)N[C@@H](CCCNC(=N)N)C(=O)N[C@H](C(=O)N[C@@H](CCC(=O)O)C(=O)N1CCC[C@H]1C(=O)NCC(=O)N1CCC[C@H]1C(=O)N[C@@H](CCC(=O)O)C(=O)N[C@@H](CO)C(=O)N1CCC[C@H]1C(N)=O)[C@@H](C)O)[C@@H](C)O

Experiments:
[1] = biological target: T1, human amylin 3(a) receptor (human …); assay: cell-based or functional assay
[2] = biological target: T2, human calcitonin receptor; assay: cell-based or functional assay

| Binder | hAmylin-R funct. EC50 (pM) [1] [pM] | hCTR funct. EC50 (pM) [2] [pM] |
| --- | --- | --- |
| B1 | 14 | 7 |
| {C16 diacid}-EASELSTAALGRLSAELHELATLPRTETGPESP-NH2 [[N-terminal(C16 diacid)]mimylin] | 8 | 4 |
| B2 | 12 | 14 |
| B3 | 23 | 54 |
| B4 | 13 | 8 |
| B5 | 14 | 6 |
| B6 | 8 | 7 |
| B7 | 31 | 12 |
